Measured values reported in patent US20180360972A1, “THERAPEUTIC COMPOUNDS” (REGENTS OF THE UNIVERSITY OF MINNESOTA, priority 2017, published 2018).

Biological target: mMC4R-NanoLuc and mMC4R-HaloTag homodimer (mouse) (UniProt P56450)
Assay: cell-based or functional assay

Sequence of mMC4R-NanoLuc and mMC4R-HaloTag homodimer (mouse) (P56450 whole entry, chain 1 of 2): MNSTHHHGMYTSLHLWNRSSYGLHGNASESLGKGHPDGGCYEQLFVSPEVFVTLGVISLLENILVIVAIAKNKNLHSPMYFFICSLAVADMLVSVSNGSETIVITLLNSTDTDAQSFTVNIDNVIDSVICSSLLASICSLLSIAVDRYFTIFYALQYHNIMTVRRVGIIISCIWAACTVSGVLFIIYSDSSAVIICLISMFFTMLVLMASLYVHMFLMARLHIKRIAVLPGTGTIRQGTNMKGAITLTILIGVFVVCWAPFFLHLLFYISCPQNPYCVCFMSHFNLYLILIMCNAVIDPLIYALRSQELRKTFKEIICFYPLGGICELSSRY
Sequence of mMC4R-NanoLuc and mMC4R-HaloTag homodimer (mouse) (P56450 whole entry, chain 2 of 2): as the sequence (P56450 whole entry, chain 1 of 2) above

reduction in BRET signal at 10 µM compared to basal signal: 15%
Substance: α-MSH (from UniProt P01189 138-150) (ligand)
